Test results as given in US20080182978A1, “ANTI-NGF ANTIBODIES AND METHODS USING SAME” (RINAT NEUROSCIENCE CORP, priority 2002, published 2008).

Molecular target: human NGF (Homo sapiens, UniProt P01138)
Experiment: BIAcore screening assay of Fab library clones (koff)
Format: binding
Method: Small scale expression in 96 wells plates was optimized for screening Fab libraries. Starting from E. coli transformed with a Fab library, colonies were picked to inoculate both a master plate (agar LB+Ampicillin (50 μg/ml)+2% Glucose) and a working plate (2 ml/well, 96 well/plate containing 1.5 mL of LB+Ampicillin (50 μg/ml)+2% Glucose). Both plates were grown at 30° C. for 8-12 hours. The master plate was stored at 4° C. and the cells from the working plate were pelleted at 5000 rpm and resuspended with 1 mL of LB+Ampicillin (50 μg/ml)+1 mM IPTG to induce expression of Fabs. Cells were harvested by centrifugation after 5 h expression time at 30° C., then resuspended in 500 μL of buffer HBS-EP ([…] buffer pH 7.4, 150 mM NaCl, 0.005% P20, 3 mM EDTA). Lysis of HBS-EP resuspended cells was attained by one cycle of freezing (−80° C.) then thawing at 37° C. Cell lysates were centrifuged at 5000 rpm for 30 min to separate cell debris from supernatants containing Fabs. The supernatants were then injected into the BIAcore plasmon resonance apparatus to obtain affinity information for each Fab. Clones expressing Fabs were rescued from the master plate to sequence the DNA and for large scale Fab production and detailed characterization as described below.
Affinities of anti-NGF Fabs and monoclonal antibodies were determined using the BIAcore300™ surface plasmon resonance (SPR) system (BIAcore, INC, Piscaway N.J.). CM5 chips were activated with N-ethyl-N′-(3-dimethylaminopropyl)-carbodimide hydrochloride (EDC) and N-hydroxysuccinimide (NHS) according to the supplier's instructions. Human NGF was diluted into 10 mM sodium acetate pH 4.0 and injected over the activated chip at a concentration of 0.005 mg/mL. Using variable flow time across the individual chip channels, two ranges of antigen density were achieved: 100-200 response units (RU) for detailed kinetic studies and 500-600 RU for screening assays. The chip was blocked with ethanolamine. […] HBS-EP buffer (0.01M HEPES, pH 7.4, 0.15 NaCl, 3 mM EDTA, 0.005% Surfactant […]) was used as running buffer for all the BIAcore assays.
A screening BIAcore assay was optimized to determine the affinity of Fab clones from libraries. Supernatants of small culture lysates were injected at 50 μl/min for 2 min. Dissociation times of 10 to 15 minutes were used for determination of a single exponential dissociation rate (koff) using BIAevaluation software. […] Clones showing improved (slower) koff values were expressed at large scale and full kinetic parameters, kon and koff, were determined on purified protein. The assay was capable of detecting differences in affinity that were approximately 2-fold or larger.
For affinity screening experiments, each library was further paired with the corresponding CDR-grafted light or heavy chain (for example, the H1/H2 library was paired with CDR-grafted light chain), the antibody was expressed, and affinity to human NGF of the individual clones was screened using the BIACORE surface plasmon resonance (SPR) system (BIAcore, Inc. Piscataway, N.J.) according to the manufacturer's instructions and as described above. koff, kon and KD were determined. Antibody clones were ranked based on koff rates, since generally most variation in affinity is seen in koff rates, and further because koff rates are independent of antibody concentration.
20-80 clones from each small library were screened using BIAcore analysis as described herein. Samples were simultaneously analyzed by BIAcore for binding affinity to NGF in one channel of the BIAcore chip and for presence of Fab by binding to a penta-histag antibody in another channel of the sensor chip, to detect the his tag at the C terminus of the heavy chain. Clones that expressed protein were classified as having the same affinity, worse affinity, better affinity or no binding, using koff to classify: The results of this analysis are shown in Table 5.

[1] = Table 3: heavy chain library clones paired with 6D5 light chain
[2] = Table 6: single CDR H3 or L3 mutation in 8L2-6D5 template

Chain of human NGF (P01138 122-241): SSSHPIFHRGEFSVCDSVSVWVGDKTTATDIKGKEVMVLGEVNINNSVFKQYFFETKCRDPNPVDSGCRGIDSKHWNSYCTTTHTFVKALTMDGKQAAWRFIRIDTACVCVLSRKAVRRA

| Molecule | koff [1] | koff [2] | Kd (Table 3: heavy chain library clones, KD calculated using kon 4e4 M^−1s^−1) |
| --- | --- | --- | --- |
| H222: heavy chain library clone, CDRH1 SEQ ID NO:32, CDRH2 SEQ ID NO:33 (antibody, V domains shown) VH: QVQLQESGPGLVKPSETLSLTCTVSGFSLIGYDVTWIRQPPGKGLEWIGGIWGDGTTDYNSAVKSRVTISKDTSKNQFSLKLSSVTAADTAVYYCARGGYYYGTSYYFDYWGQGTLVTVS VL: DIQMTQSPSSLSASVGDRVTITCRASQDISNHLNWYQQKPGKAPKLLIYYISRFHSGVPSRFSGSGSGTDFTFTISSLQPEDIATYYCQQSKTLPYTFGQGTKLEIKRT | 0.00038 s⁻¹ | – | – |
| H28: heavy chain library clone, CDRH1 SEQ ID NO:44, CDRH2 SEQ ID NO:45 (antibody, V domains shown) VH: QVQLQESGPGLVKPSETLSLTCTVSGFSLIGYDSTWIRQPPGKGLEWIGSIWGDGTTDYNSALKSRVTISKDTSKNQFSLKLSSVTAADTAVYYCARGGYYYGTSYYFDYWGQGTLVTVS VL: DIQMTQSPSSLSASVGDRVTITCRASQDISNHLNWYQQKPGKAPKLLIYYISRFHSGVPSRFSGSGSGTDFTFTISSLQPEDIATYYCQQSKTLPYTFGQGTKLEIKRT | 0.00075 s⁻¹ | – | – |
| H225: heavy chain library clone, CDRH1 SEQ ID NO:34, CDRH2 SEQ ID NO:35 (antibody, V domains shown) VH: QVQLQESGPGLVKPSETLSLTCTVSGFSLIGYDVTWIRQPPGKGLEWIGGIWGDGTTDYNSSVKSRVTISKDTSKNQFSLKLSSVTAADTAVYYCARGGYYYGTSYYFDYWGQGTLVTVS VL: DIQMTQSPSSLSASVGDRVTITCRASQDISNHLNWYQQKPGKAPKLLIYYISRFHSGVPSRFSGSGSGTDFTFTISSLQPEDIATYYCQQSKTLPYTFGQGTKLEIKRT | 0.00038 s⁻¹ | – | – |
| T104S: 8L2-6D5 template with CDR H3 mutation T104S (antibody, V domains shown) VH: QVQLQESGPGLVKPSETLSLTCTVSGFSLIGYDINWIRQPPGKGLEWIGMIWGDGTTDYNSALKSRVTISKDTSKNQFSLKLSSVTAADTAVYYCARGGYYYGSSYYFDYWGQGTLVTVS VL: DIQMTQSPSSLSASVGDRVTITCRASQDISNHLNWYQQKPGKAPKLLIYYISRFHSGVPSRFSGSGSGTDFTFTISSLQPEDIATYYCQQSKTLPYTFGQGTKLEIKRT | – | 0.0022 s⁻¹ | – |
| H17: heavy chain library clone, CDRH1 SEQ ID NO:42, CDRH2 SEQ ID NO:43 (antibody, V domains shown) VH: QVQLQESGPGLVKPSETLSLTCTVSGFSLIGYDASWIRQPPGKGLEWIGGIWGDGTTDYNSSVKSRVTISKDTSKNQFSLKLSSVTAADTAVYYCARGGYYYGTSYYFDYWGQGTLVTVS VL: DIQMTQSPSSLSASVGDRVTITCRASQDISNHLNWYQQKPGKAPKLLIYYISRFHSGVPSRFSGSGSGTDFTFTISSLQPEDIATYYCQQSKTLPYTFGQGTKLEIKRT | 0.00061 s⁻¹ | – | 0.0152 µM |
| Y106R: 8L2-6D5 template with CDR H3 mutation Y106R (antibody, V domains shown) VH: QVQLQESGPGLVKPSETLSLTCTVSGFSLIGYDINWIRQPPGKGLEWIGMIWGDGTTDYNSALKSRVTISKDTSKNQFSLKLSSVTAADTAVYYCARGGYYYGTSRYFDYWGQGTLVTVS VL: DIQMTQSPSSLSASVGDRVTITCRASQDISNHLNWYQQKPGKAPKLLIYYISRFHSGVPSRFSGSGSGTDFTFTISSLQPEDIATYYCQQSKTLPYTFGQGTKLEIKRT | – | 0.0016 s⁻¹ | – |

Second part, the molecule after the results:

| koff [1] | koff [2] | Kd (Table 3: heavy chain library clones, KD calculated using kon 4e4 M^−1s^−1) | Molecule |
| --- | --- | --- | --- |
| 0.00042 s⁻¹ | – | – | H18: heavy chain library clone, CDRH1 SEQ ID NO:36, CDRH2 SEQ ID NO:37 (antibody, V domains shown) VH: QVQLQESGPGLVKPSETLSLTCTVSGFSLIGYDATWIRQPPGKGLEWIGGIWGDGTTDYNSAVKSRVTISKDTSKNQFSLKLSSVTAADTAVYYCARGGYYYGTSYYFDYWGQGTLVTVS VL: DIQMTQSPSSLSASVGDRVTITCRASQDISNHLNWYQQKPGKAPKLLIYYISRFHSGVPSRFSGSGSGTDFTFTISSLQPEDIATYYCQQSKTLPYTFGQGTKLEIKRT |
| – | 0.002 s⁻¹ | – | Y106T: 8L2-6D5 template with CDR H3 mutation Y106T (antibody, V domains shown) VH: QVQLQESGPGLVKPSETLSLTCTVSGFSLIGYDINWIRQPPGKGLEWIGMIWGDGTTDYNSALKSRVTISKDTSKNQFSLKLSSVTAADTAVYYCARGGYYYGTSTYFDYWGQGTLVTVS VL: DIQMTQSPSSLSASVGDRVTITCRASQDISNHLNWYQQKPGKAPKLLIYYISRFHSGVPSRFSGSGSGTDFTFTISSLQPEDIATYYCQQSKTLPYTFGQGTKLEIKRT |
| – | 0.0014 s⁻¹ | – | Y107F: 8L2-6D5 template with CDR H3 mutation Y107F (antibody, V domains shown) VH: QVQLQESGPGLVKPSETLSLTCTVSGFSLIGYDINWIRQPPGKGLEWIGMIWGDGTTDYNSALKSRVTISKDTSKNQFSLKLSSVTAADTAVYYCARGGYYYGTSYFFDYWGQGTLVTVS VL: DIQMTQSPSSLSASVGDRVTITCRASQDISNHLNWYQQKPGKAPKLLIYYISRFHSGVPSRFSGSGSGTDFTFTISSLQPEDIATYYCQQSKTLPYTFGQGTKLEIKRT |
| – | 0.0027 s⁻¹ | – | Y106M: 8L2-6D5 template with CDR H3 mutation Y106M (antibody, V domains shown) VH: QVQLQESGPGLVKPSETLSLTCTVSGFSLIGYDINWIRQPPGKGLEWIGMIWGDGTTDYNSALKSRVTISKDTSKNQFSLKLSSVTAADTAVYYCARGGYYYGTSMYFDYWGQGTLVTVS VL: DIQMTQSPSSLSASVGDRVTITCRASQDISNHLNWYQQKPGKAPKLLIYYISRFHSGVPSRFSGSGSGTDFTFTISSLQPEDIATYYCQQSKTLPYTFGQGTKLEIKRT |
| – | 0.0011 s⁻¹ | – | Y100R: 8L2-6D5 template with CDR H3 mutation Y100R (antibody, V domains shown) VH: QVQLQESGPGLVKPSETLSLTCTVSGFSLIGYDINWIRQPPGKGLEWIGMIWGDGTTDYNSALKSRVTISKDTSKNQFSLKLSSVTAADTAVYYCARGGRYYGTSYYFDYWGQGTLVTVS VL: DIQMTQSPSSLSASVGDRVTITCRASQDISNHLNWYQQKPGKAPKLLIYYISRFHSGVPSRFSGSGSGTDFTFTISSLQPEDIATYYCQQSKTLPYTFGQGTKLEIKRT |
| – | 0.0012 s⁻¹ | – | Y100L: 8L2-6D5 template with CDR H3 mutation Y100L (antibody, V domains shown) VH: QVQLQESGPGLVKPSETLSLTCTVSGFSLIGYDINWIRQPPGKGLEWIGMIWGDGTTDYNSALKSRVTISKDTSKNQFSLKLSSVTAADTAVYYCARGGLYYGTSYYFDYWGQGTLVTVS VL: DIQMTQSPSSLSASVGDRVTITCRASQDISNHLNWYQQKPGKAPKLLIYYISRFHSGVPSRFSGSGSGTDFTFTISSLQPEDIATYYCQQSKTLPYTFGQGTKLEIKRT |
| 0.00054 s⁻¹ | – | – | H227: heavy chain library clone, CDRH1 SEQ ID NO:40, CDRH2 SEQ ID NO:41 (antibody, V domains shown) VH: QVQLQESGPGLVKPSETLSLTCTVSGFSLIGYDISWIRQPPGKGLEWIGQIWGDGTTDYNSSVKSRVTISKDTSKNQFSLKLSSVTAADTAVYYCARGGYYYGTSYYFDYWGQGTLVTVS VL: DIQMTQSPSSLSASVGDRVTITCRASQDISNHLNWYQQKPGKAPKLLIYYISRFHSGVPSRFSGSGSGTDFTFTISSLQPEDIATYYCQQSKTLPYTFGQGTKLEIKRT |
